Experiment [1] concerns the target T1, Flag-tagged human IRF3 (human, UniProt Q14653 1-427).
T1 construct: also called transcription factor IRF3; not shown: Flag tag
T1 sequence: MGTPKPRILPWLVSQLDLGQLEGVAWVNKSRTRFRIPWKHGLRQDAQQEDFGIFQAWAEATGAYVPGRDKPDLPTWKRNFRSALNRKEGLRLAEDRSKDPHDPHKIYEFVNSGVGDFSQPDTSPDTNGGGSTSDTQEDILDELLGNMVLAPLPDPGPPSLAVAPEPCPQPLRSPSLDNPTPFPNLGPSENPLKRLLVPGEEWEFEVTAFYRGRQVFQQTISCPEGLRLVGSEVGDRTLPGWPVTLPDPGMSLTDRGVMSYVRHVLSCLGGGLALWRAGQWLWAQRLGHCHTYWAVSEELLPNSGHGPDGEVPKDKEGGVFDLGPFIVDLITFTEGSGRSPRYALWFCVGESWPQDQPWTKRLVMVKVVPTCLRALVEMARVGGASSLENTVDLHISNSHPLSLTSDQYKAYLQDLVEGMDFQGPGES
Briefly: co-immunoprecipitation from HEK293T lysates: IP anti-C7, blot anti-Flag.

Experiment [2] deals with T2, Flag-tagged human STAT2 (human, UniProt P52630 1-851).
T2 construct: also called flag-STAT2; not shown: Flag tag
Nature of the experiment: co-immunoprecipitation from HEK293T lysates: IP anti-HA, blot anti-Flag.

Experiment [3] has as its target T3, Flag-tagged human STAT1 (human, UniProt P42224 1-750).
T3 construct: also called flag-STAT1; not shown: Flag tag
T3 sequence: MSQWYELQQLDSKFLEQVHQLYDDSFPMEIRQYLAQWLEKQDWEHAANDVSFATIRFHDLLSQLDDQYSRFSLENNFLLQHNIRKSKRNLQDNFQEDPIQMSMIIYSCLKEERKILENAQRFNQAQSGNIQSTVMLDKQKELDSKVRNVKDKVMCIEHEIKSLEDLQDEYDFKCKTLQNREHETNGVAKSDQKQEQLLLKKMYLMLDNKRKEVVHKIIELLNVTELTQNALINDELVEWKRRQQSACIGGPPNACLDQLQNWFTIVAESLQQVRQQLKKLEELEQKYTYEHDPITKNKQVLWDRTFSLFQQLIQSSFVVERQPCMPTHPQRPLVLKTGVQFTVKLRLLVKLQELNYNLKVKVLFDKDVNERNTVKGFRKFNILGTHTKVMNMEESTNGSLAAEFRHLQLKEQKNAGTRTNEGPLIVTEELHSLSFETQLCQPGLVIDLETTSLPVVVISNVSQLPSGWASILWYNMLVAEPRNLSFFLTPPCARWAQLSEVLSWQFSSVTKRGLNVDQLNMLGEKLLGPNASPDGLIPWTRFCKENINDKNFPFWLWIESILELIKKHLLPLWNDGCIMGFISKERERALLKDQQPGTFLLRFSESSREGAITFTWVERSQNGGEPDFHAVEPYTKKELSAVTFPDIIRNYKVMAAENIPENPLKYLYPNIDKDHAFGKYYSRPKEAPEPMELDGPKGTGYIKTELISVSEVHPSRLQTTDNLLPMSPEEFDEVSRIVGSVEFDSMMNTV
The experiment is described as above.

B1: vaccinia virus C7 protein (other)
chain: MGIQHEFDIIINGDIALRNLQLHKGDNYGCKLKIISNDYKKLKFRFIIRPDWSEIDEVKGLTVFANNYAVKVNKVDDTFYYVIYEAVIHLYNKKTEILIYSDDENELFKHYYPYISLNMISKKYKVKEENYSSPYIEHPLIPYRDYESMD
notes: also called vaccinia C7; C7L gene product
Consider B1, for which the binding result in experiment [1] is “binds”.

B2: HA-tagged vaccinia C7 (other)
chain: B1 chain
notes: also called C7-HA; HA-tagged C7
In the case of B2, the binding result in experiment [2] was “binds”; in experiment [3] it was “no binding”.

For the origin of these results see patent US20200339959A1 (Memorial Sloan Kettering, published 2020).
